Laboratory results: patent publication US20220363770A1 (Amgen, published 2022)
Residue numbers refer to the chain shown, from its start. Each block holds one binder with its values, some of them ahead of it.

Columns and labels:
human PAC1 receptor = molecular target: T1, human PAC1 receptor (human, UniProt P41586 24-468); assay: cell-based or functional assay
T1 sequence: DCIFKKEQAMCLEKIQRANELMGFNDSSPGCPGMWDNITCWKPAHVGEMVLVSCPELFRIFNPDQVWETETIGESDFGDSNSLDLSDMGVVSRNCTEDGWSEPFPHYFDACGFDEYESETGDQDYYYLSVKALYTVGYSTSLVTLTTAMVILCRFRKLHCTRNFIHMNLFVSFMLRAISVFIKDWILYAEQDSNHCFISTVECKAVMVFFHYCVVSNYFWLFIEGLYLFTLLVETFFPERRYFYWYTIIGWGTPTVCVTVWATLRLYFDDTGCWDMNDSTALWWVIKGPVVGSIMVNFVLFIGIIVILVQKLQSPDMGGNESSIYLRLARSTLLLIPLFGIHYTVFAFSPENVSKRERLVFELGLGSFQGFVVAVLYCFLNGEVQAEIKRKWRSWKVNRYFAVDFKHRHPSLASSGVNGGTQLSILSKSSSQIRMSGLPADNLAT

human CGRP receptor = human CGRP receptor (human, UniProt Q16602 23-461; O60894 27-148); assay: cell-based or functional assay
Sequence of human CGRP receptor (Q16602 23-461 limits assumed, chain 1 of 2): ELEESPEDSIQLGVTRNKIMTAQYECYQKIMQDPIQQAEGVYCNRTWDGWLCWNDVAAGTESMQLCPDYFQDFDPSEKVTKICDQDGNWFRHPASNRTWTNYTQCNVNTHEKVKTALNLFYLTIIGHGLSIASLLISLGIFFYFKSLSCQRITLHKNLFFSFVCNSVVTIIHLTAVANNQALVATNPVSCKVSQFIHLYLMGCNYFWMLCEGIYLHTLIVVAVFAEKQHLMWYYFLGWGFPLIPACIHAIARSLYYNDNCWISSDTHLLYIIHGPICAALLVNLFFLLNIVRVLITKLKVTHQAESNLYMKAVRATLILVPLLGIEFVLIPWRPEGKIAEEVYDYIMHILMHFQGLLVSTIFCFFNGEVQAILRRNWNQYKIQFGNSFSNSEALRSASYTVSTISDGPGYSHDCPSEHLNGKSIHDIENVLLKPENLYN
Sequence of human CGRP receptor (O60894 27-148 limits assumed, chain 2 of 2): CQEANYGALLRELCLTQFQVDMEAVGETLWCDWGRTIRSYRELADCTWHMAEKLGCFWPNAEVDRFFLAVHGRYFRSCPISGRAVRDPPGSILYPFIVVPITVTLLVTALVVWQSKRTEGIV

- Fold-improvement over 29G4v22 Ab (human PAC1 receptor): 9.9 fold
- IC50 (human PAC1 receptor): 0.81 nM
- Fold-improvement over 4E4 Ab (human CGRP receptor): 0.8 fold
- IC50 (human CGRP receptor): 0.61 nM
B1: iPS:454813 (bispecific antibody, human IgG1, kappa, lambda, N297G)
light 1: QSVLTQPPSVSAAPGQKVTISCSGSRSNIGIKAVSWYQQLPGTAPKLLIYDNNKRPSGIPDRFSGSKSGTSATLGITGLQTGDEADYYCGTWDSRLSAVVFGGGTKLTVLGQPKAAPSVTLFPPSSEELQANKATLVCLISDFYPGAVTVAWKADSSPVKAGVETTTPSKQSNNKYAAKSYLSLTPEQWKSHRSYSCQVTHEGSTVEKTVAPTECS
heavy 1: QVQLVESGGGVVQPGRSLRLSCAASGFTFSSFGMHWVRQAPGKGLEWVAVISFDGSIKYSVDSVKGRFTISRDNSKNTLFLQMNSLRAEDTAVYYCARDRLNYYESSGYYHYKYYGMAVWGQGTTVTVSSASTKGPSVFPLAPSSKSTSGGTAALGCLVKDYFPEPVTVSWNSGALTSGVHTFPAVLQSSGLYSLESVVTVPSSSLGTQTYICNVNHKPSNTKVDKKVEPKSCDKTHTCPPCPAPELLGGPSVFLFPPKPKDTLMISRTPEVTCVVVDVSHEDPEVKFNWYVDGVEVHNAKTKPCEEQYGSTYRCVSVLTVLHQDWLNGKEYKCKVSNKALPAPIEKTISKAKGQPREPQVYTLPPSRKKMTKNQVSLTCLVKGFYPSDIAVEWESNGQPENNYKTTPPVLKSDGSFFLYSKLTVDKSRWQQGNVFSCSVMHEALHNHYTQKSLSLSPGK
light 2: EIVLTQSPATLSLSPGERATLSCRASKSVGRSLHWYQQKPGQAPRLLIKYASQSLSGIPARFSGSGSGTDFTLTISSLEPEDFAVYYCHQSSRLPFTFGPGTKVDIKRTVAAPSVFIFPPSDEQLKSGTASVVCLLNNFYPREAKVQWKVDNALQSGNSQESVTEQDSKDSTYSLESTLTLSKADYEKHKVYACEVTHQGLSSPVTKSFNRGEC
heavy 2: not shown

- Fold-improvement over 29G4v22 Ab (human PAC1 receptor): 9.2 fold
- IC50 (human PAC1 receptor): 0.72 nM
- Fold-improvement over 4E4 Ab (human CGRP receptor): 1.5 fold
- IC50 (human CGRP receptor): 0.39 nM
B2: iPS:454821 (bispecific antibody, human IgG1, kappa, lambda, N297G)
light 1: B1 light 1
heavy 1: B1 heavy 1
light 2: B1 light 2
heavy 2: not shown

- Fold-improvement over 29G4v22 Ab (human PAC1 receptor): 8.8 fold
- IC50 (human PAC1 receptor): 0.78 nM
- Fold-improvement over 4E4 Ab (human CGRP receptor): 1.4 fold
- IC50 (human CGRP receptor): 0.46 nM
B3: iPS:454841 (bispecific antibody, human IgG1, kappa, lambda, N297G)
light 1: B1 light 1
heavy 1: B1 heavy 1
light 2: B1 light 2 with R31W
heavy 2: not shown

- Fold-improvement over 29G4v22 Ab (human PAC1 receptor): 10.7 fold
- IC50 (human PAC1 receptor): 0.62 nM
- Fold-improvement over 4E4 Ab (human CGRP receptor): 1.7 fold
- IC50 (human CGRP receptor): 0.33 nM
B4: iPS:454817 (bispecific antibody, human IgG1, kappa, lambda, N297G)
light 1: B1 light 1
heavy 1: B1 heavy 1
light 2: B1 light 2
heavy 2: not shown

- Fold-improvement over 29G4v22 Ab (human PAC1 receptor): 9 fold
- IC50 (human PAC1 receptor): 0.76 nM
- Fold-improvement over 4E4 Ab (human CGRP receptor): 2.6 fold
- IC50 (human CGRP receptor): 0.24 nM
B5: iPS:454833 (bispecific antibody, human IgG1, kappa, lambda, N297G)
light 1: B1 light 1
heavy 1: B1 heavy 1
light 2: B1 light 2
heavy 2: not shown

- Fold-improvement over 29G4v22 Ab (human PAC1 receptor): 5.8 fold
- IC50 (human PAC1 receptor): 0.93 nM
- Fold-improvement over 4E4 Ab (human CGRP receptor): 1.4 fold
- IC50 (human CGRP receptor): 0.47 nM
B6: iPS:454853 (bispecific antibody, human IgG1, kappa, lambda, N297G)
light 1: B1 light 1
heavy 1: B1 heavy 1
light 2: B1 light 2 with R31W
heavy 2: not shown

- Fold-improvement over 29G4v22 Ab (human PAC1 receptor): 6.6 fold
- IC50 (human PAC1 receptor): 0.81 nM
- Fold-improvement over 4E4 Ab (human CGRP receptor): 1.4 fold
- IC50 (human CGRP receptor): 0.46 nM
B7: iPS:454855 (bispecific antibody, human IgG1, kappa, lambda, N297G)
light 1: B1 light 1
heavy 1: B1 heavy 1
light 2: B1 light 2 with R31Y
heavy 2: not shown

- Fold-improvement over 29G4v22 Ab (human PAC1 receptor): 6.7 fold
- IC50 (human PAC1 receptor): 0.8 nM
- Fold-improvement over 4E4 Ab (human CGRP receptor): 1.5 fold
- IC50 (human CGRP receptor): 0.43 nM
B8: iPS:454847 (bispecific antibody, human IgG1, kappa, lambda, N297G)
light 1: B1 light 1
heavy 1: B1 heavy 1
light 2: B1 light 2 with R31W
heavy 2: not shown

- Fold-improvement over 29G4v22 Ab (human PAC1 receptor): 9.8 fold
- IC50 (human PAC1 receptor): 0.7 nM
- Fold-improvement over 4E4 Ab (human CGRP receptor): 1.8 fold
- IC50 (human CGRP receptor): 0.36 nM
B9: iPS:454829 (bispecific antibody, human IgG1, kappa, lambda, N297G)
light 1: B1 light 1
heavy 1: B1 heavy 1
light 2: B1 light 2 with K27Q
heavy 2: not shown

- Fold-improvement over 29G4v22 Ab (human PAC1 receptor): 8.3 fold
- IC50 (human PAC1 receptor): 0.8 nM
- Fold-improvement over 4E4 Ab (human CGRP receptor): 1.5 fold
- IC50 (human CGRP receptor): 0.39 nM
B10: iPS:454823 (bispecific antibody, human IgG1, kappa, lambda, N297G)
light 1: B1 light 1
heavy 1: B1 heavy 1
light 2: B1 light 2
heavy 2: not shown

- Fold-improvement over 29G4v22 Ab (human PAC1 receptor): 8.4 fold
- IC50 (human PAC1 receptor): 0.79 nM
- Fold-improvement over 4E4 Ab (human CGRP receptor): 2 fold
- IC50 (human CGRP receptor): 0.29 nM
B11: iPS:454825 (bispecific antibody, human IgG1, kappa, lambda, N297G)
light 1: B1 light 1
heavy 1: B1 heavy 1
light 2: B1 light 2
heavy 2: not shown

- Fold-improvement over 29G4v22 Ab (human PAC1 receptor): 3.6 fold
- IC50 (human PAC1 receptor): 1.48 nM
- Fold-improvement over 4E4 Ab (human CGRP receptor): 1.2 fold
- IC50 (human CGRP receptor): 0.55 nM
B12: iPS:454849 (bispecific antibody, human IgG1, kappa, lambda, N297G)
light 1: B1 light 1
heavy 1: B1 heavy 1
light 2: B1 light 2 with R31W
heavy 2: not shown

- Fold-improvement over 29G4v22 Ab (human PAC1 receptor): 7.6 fold
- IC50 (human PAC1 receptor): 0.9 nM
- Fold-improvement over 4E4 Ab (human CGRP receptor): 1.7 fold
- IC50 (human CGRP receptor): 0.38 nM
B13: iPS:454831 (bispecific antibody, human IgG1, kappa, lambda, N297G)
light 1: B1 light 1
heavy 1: B1 heavy 1
light 2: B1 light 2 with K27Q
heavy 2: not shown

- Fold-improvement over 29G4v22 Ab (human PAC1 receptor): 8.2 fold
- IC50 (human PAC1 receptor): 0.66 nM
- Fold-improvement over 4E4 Ab (human CGRP receptor): 1.7 fold
- IC50 (human CGRP receptor): 0.4 nM
B14: iPS:454845 (bispecific antibody, human IgG1, kappa, lambda, N297G)
light 1: B1 light 1
heavy 1: B1 heavy 1
light 2: B1 light 2 with R31W
heavy 2: not shown

- Fold-improvement over 29G4v22 Ab (human PAC1 receptor): 6.8 fold
- IC50 (human PAC1 receptor): 1.01 nM
- Fold-improvement over 4E4 Ab (human CGRP receptor): 1.4 fold
- IC50 (human CGRP receptor): 0.45 nM
B15: iPS:454837 (bispecific antibody, human IgG1, kappa, lambda, N297G)
light 1: B1 light 1
heavy 1: B1 heavy 1
light 2: B1 light 2 with S28A, R31W
heavy 2: not shown

- Fold-improvement over 29G4v22 Ab (human PAC1 receptor): 9.6 fold
- IC50 (human PAC1 receptor): 0.69 nM
- Fold-improvement over 4E4 Ab (human CGRP receptor): 1.8 fold
- IC50 (human CGRP receptor): 0.33 nM
B16: iPS:454819 (bispecific antibody, human IgG1, kappa, lambda, N297G)
light 1: B1 light 1
heavy 1: B1 heavy 1
light 2: B1 light 2
heavy 2: not shown

- Fold-improvement over 29G4v22 Ab (human PAC1 receptor): 7.1 fold
- IC50 (human PAC1 receptor): 0.76 nM
- Fold-improvement over 4E4 Ab (human CGRP receptor): 1.8 fold
- IC50 (human CGRP receptor): 0.37 nM
B17: iPS:454851 (bispecific antibody, human IgG1, kappa, lambda, N297G)
light 1: B1 light 1
heavy 1: B1 heavy 1
light 2: B1 light 2 with R31W
heavy 2: not shown

- Fold-improvement over 29G4v22 Ab (human PAC1 receptor): 8.6 fold
- IC50 (human PAC1 receptor): 0.79 nM
- Fold-improvement over 4E4 Ab (human CGRP receptor): 1.8 fold
- IC50 (human CGRP receptor): 0.36 nM
B18: iPS:454839 (bispecific antibody, human IgG1, kappa, lambda, N297G)
light 1: B1 light 1
heavy 1: B1 heavy 1
light 2: B1 light 2 with R31W
heavy 2: not shown

- Fold-improvement over 29G4v22 Ab (human PAC1 receptor): 10.1 fold
- IC50 (human PAC1 receptor): 0.65 nM
- Fold-improvement over 4E4 Ab (human CGRP receptor): 1.6 fold
- IC50 (human CGRP receptor): 0.37 nM
B19: iPS:454815 (bispecific antibody, human IgG1, kappa, lambda, N297G)
light 1: B1 light 1
heavy 1: B1 heavy 1
light 2: B1 light 2
heavy 2: not shown

- Fold-improvement over 29G4v22 Ab (human PAC1 receptor): 11.2 fold
- IC50 (human PAC1 receptor): 0.57 nM
- Fold-improvement over 4E4 Ab (human CGRP receptor): 0.5 fold
- IC50 (human CGRP receptor): 1.36 nM
B20: iPS:454857 (bispecific antibody, human IgG1, kappa, lambda, N297G)
light 1: B1 light 1 with R26S, I31N, K32N, A33Y, A72T
heavy 1: B1 heavy 1 with E105R, S107F, H111G, K113H
light 2: B1 light 2 with R31Q
heavy 2: not shown

- Fold-improvement over 29G4v22 Ab (human PAC1 receptor): 5.8 fold
- IC50 (human PAC1 receptor): 0.93 nM
- Fold-improvement over 4E4 Ab (human CGRP receptor): 1.6 fold
- IC50 (human CGRP receptor): 0.42 nM
B21: iPS:454843 (bispecific antibody, human IgG1, kappa, lambda, N297G)
light 1: B1 light 1
heavy 1: B1 heavy 1
light 2: B1 light 2 with R31W
heavy 2: not shown

- Fold-improvement over 29G4v22 Ab (human PAC1 receptor): 8.9 fold
- IC50 (human PAC1 receptor): 0.75 nM
- Fold-improvement over 4E4 Ab (human CGRP receptor): 1.7 fold
- IC50 (human CGRP receptor): 0.34 nM
B22: iPS:454827 (bispecific antibody, human IgG1, kappa, lambda, N297G)
light 1: B1 light 1
heavy 1: B1 heavy 1
light 2: B1 light 2 with K27Q
heavy 2: not shown

- Fold-improvement over 29G4v22 Ab (human PAC1 receptor): 9.3 fold
- IC50 (human PAC1 receptor): 0.73 nM
- Fold-improvement over 4E4 Ab (human CGRP receptor): 2.2 fold
- IC50 (human CGRP receptor): 0.28 nM
B23: iPS:454835 (bispecific antibody, human IgG1, kappa, lambda, N297G)
light 1: B1 light 1
heavy 1: B1 heavy 1
light 2: B1 light 2
heavy 2: not shown

- Fold-improvement over 29G4v22 Ab (human PAC1 receptor): 3.3 fold
- IC50 (human PAC1 receptor): 1.91 nM
- Fold-improvement over 4E4 Ab (human CGRP receptor): 0.4 fold
- IC50 (human CGRP receptor): 1.5 nM
B24: iPS:454859 (bispecific antibody, human IgG1, kappa, lambda, N297G)
light 1: B1 light 1 with R26S, I31N, K32N, A33Y, A72T
heavy 1: B1 heavy 1 with E105R, S107F, H111G, K113H
light 2: B1 light 2 with S28A, G30W, R31H, S32N, R93M
heavy 2: not shown
